# Values joined by “and” are separate entries in the source; they are usually repeats but may differ in a detail not shown here. Equal values may be shown once.
# Experiments:
# [1] = target: WIV1-CoV RBD (WIV1-CoV (bat))
# [2] = target: WIV1-CoV RBD (WIV1-CoV (bat)); assay: SPR, His-tagged VHH on NTA chip, RBD as analyte
# [3] = target: GD-Pangolin RBD displayed on S. cerevisiae (GD-Pangolin coronavirus)
# [4] = target: SARS-Cov-1 RBD displayed on S. cerevisiae
# [5] = target: WIV1 RBD displayed on S. cerevisiae (WIV1 (bat sarbecovirus)); assay: flow cytometry, S. cerevisiae displaying the RBD, AF633 anti-human IgG [WIV1]
# [6] = target: LYRa11 RBD displayed on S. cerevisiae (bat SARS-related coronavirus LYRa11); assay: flow cytometry, S. cerevisiae displaying the RBD, AF633 anti-human IgG [LYRa11]
# [7] = target: RaTG13 RBD displayed on S. cerevisiae (bat coronavirus RaTG13); assay: flow cytometry, S. cerevisiae displaying the RBD, AF633 anti-human IgG [RaTG13]
# [8] = target: Mouse IgG1 Fc fused SARS-CoV-2 RBD (Sino Biological) (SARS-CoV-2; mouse) (UniProt P0DTC2)
substance,measurement,setting,value
SARS VHH-72,koff,[1],0.0026 s⁻¹
same,kon,[1],349000 M⁻¹ s⁻¹
same,Kd,[2],7.47 nM
S309 antibody,EC50 (read off the curve),[3],1 µg/mL
same,EC50 (read off the curve),[4],0.5 µg/mL
same,EC50 (read off the curve),[5],0.7 µg/mL
same,EC50 (read off the curve),[6],0.8 µg/mL
same,EC50 (read off the curve),[7],0.8 µg/mL
VHH72-W52aH-hIgG1 Fc (P. pastoris supernatant) (Fc fusion),% Signal decrease over 8 min dissociation,[8],49% and 51%
same,Kd,[8],120 nM and 92.2 nM

# From patent US20230227537A1
